Reference: US10654893B2, “Self-assembling peptide compositions” (3-D MATRIX, LTD., priority 2014, dated 2020)

Assays:
Type in all cases: physicochemical
[1] = Vial inversion test of 0.5% RADA16 gels with CaCl2
Procedure: FIGS. 41A-41D depict the protocol used to follow peptide dissolution and to assess effects of particular anions and/or cations, and/or their concentration, on certain RADA16 (SEQ ID NO:1) compositions. As shown, peptide powder in a vial was dissolved in deionized water with vortexing and sonication. The particular peptide composition utilized in this Example was a 1% composition of RADA16 (SEQ ID NO:1) that was mixed at a 1:1 ratio with a 2× salt solution to obtain a final concentration of 0.5% RADA16 (SEQ ID NO:1) and the desired molar concentration of salt.
The protocol depicted in FIGS. 41A-41D was followed to prepare 0.5% solutions of RADA16 (SEQ ID NO:1) with different concentrations of CaCl2. Mixed solutions were allowed to sit for a relaxation period of about 24 hours. Vials were then inverted upside down so that gel properties could be assessed.

[2] = pH adjustment with 0.1 N NaOH, pH and visual observation; conditions: for Appearance of composition: 2.5%
Procedure: In this Example, pH levels of peptide compositions was adjusted, for example, by addition of 0.1 N NaOH to 2 mL of a 2.5% peptide composition. pH and appearance of the adjusted compositions were observed. An acidic salt was added if the pH level was higher than the desired level.
With certain compositions, when pH levels of peptide compositions were higher than 3.5 (RADA16 (SEQ ID NO:1) and KLD12 (SEQ ID NO:2)) or 3.7 (IEIK13 (SEQ ID NO:3)), the peptide compositions began phase separation (i.e. becoming cloudy). In some embodiments, provided peptide compositions have a pH within the range of about 3.0 to about 3.7 (particularly for IEIK13 (SEQ ID NO:3)), or about 3.0 to about 3.5 (particularly for RADA16 (SEQ ID NO:1) and/or KLD12 (SEQ ID NO:2)).

[3] = Formulation chart: concentration for desired storage modulus from linear trendline equations; conditions: linear trendline equation
From the text: In some embodiments, peptide compositions with a specific desired stiffness may be formulated to have a particular peptide concentration determined using a mathematical model (i.e., the modulus trend-line equation). A formulation chart of peptide compositions may relate their concentrations in deionized water to their specific storage moduli, for example as is presented below in Table 3A. From such a chart, one skilled in the art may formulate a peptide composition with desired rheological properties by selecting a particular peptide and an appropriate peptide concentration so that the formulated composition has a desired stiffness.

[4] = Rheological properties (stiffness, storage modulus, viscosity) at selected pH levels
Procedure: Rheological properties of certain peptide compositions were observed before and after adjusting their pH levels to 3.4 (RADA16 (SEQ ID NO:1) and KLD12 (SEQ ID NO:2)) or 3.7 (IEIK13 (SEQ ID NO:3)). Rheological properties of peptides were evaluated using a rheometer (AR500, TA Instruments) with 40 mm plates. Specifically, a peptide composition (700 μL) was placed on the rheometer plate and excess composition was gently removed by Kimwipes. Measurements were performed after 2 minutes of relaxation time at 37° C. RADA16 (SEQ ID NO:1), KLD12 (SEQ ID NO:2) and IEIK13 (SEQ ID NO:3) compositions at elevated pH were stiffer than those at 2.5 (RADA16 (SEQ ID NO:1)), 2.0 (KLD12 (SEQ ID NO:2)), and 2.1 (IEIK13 (SEQ ID NO:3)).
Storage modulus of certain peptide compositions at selected pH levels were evaluated using a rheometer (DHR-1, TA Instruments) with 20 mm plates. […] Determined storage moduli for tested peptide compositions are shown in FIG. 18 for RADA16 (SEQ ID NO:1) and FIG. 19 for IEIK13 (SEQ ID NO:3), respectively.
Viscosities of 1% IEIK13 (SEQ ID NO:3) compositions at selected pH levels were evaluated using a rheometer (DHR-1, TA Instruments) with 20 mm plates.

[5] = Congo Red assay of gel formation in PBS solution (pH 7.4); conditions: 0.5%, 1.0%, 1.5%, 2.0% and 2.5%
Procedure: A Congo Red assay was performed to determine gel formation of peptide compositions in a PBS (Phosphate buffered saline) solution (pH 7.4), as shown in FIG. 1. 100 μl of each gel at selected concentrations were plated on a glass slide. After 30 seconds, 500 μl of 1% Congo Red solution was added around and on top of each of the composition aliquots and then the excess Congo Red solution was wiped off prior to examination. RADA16 (SEQ ID NO:1), IEIK13 (SEQ ID NO:3), and KLD12 (SEQ ID NO:2) were plated at selected concentrations of 0.5%, 1.0%, 1.5%, 2.0% and 2.5%. Visual observation determined the success or failure of gelation at each concentration.

Substance: Arg-Ala-Asp-Ala-Arg-Ala-Asp-Ala-Arg-Ala-Asp-Ala-Arg-Ala-Asp-Ala [RADA16]
- Gel functionality on vial inversion ([1]; 0.250 M CaCl2): fully functional gel
- Gel functionality on vial inversion ([1]; 0.500 M CaCl2): semi-functional gel
- Gel functionality on vial inversion ([1]; 1M CaCl2): non-functional gel
- Observation ([2]; 0.1N NaOH 0 μL/mL, Conc. 2.5%, pH 2.2 (RADA16), 1.8 (IEIK13), 2.1 (KLD12)): Clear, thick gel
- Observation ([2]; 0.1N NaOH 50 μL/mL, Conc. 2.38%, pH 2.3 (RADA16), 2.1 (IEIK13), 2.4 (KLD12)): Clear, thick gel
- Observation ([2]; 0.1N NaOH 100 μL/mL, Conc. 2.27%, pH 2.4 (RADA16), 2.2 (IEIK13), 2.6 (KLD12)): Clear, thick gel
- Observation ([2]; 0.1N NaOH 150 μL/mL, Conc. 2.17%, pH 2.7 (RADA16), 2.7 (IEIK13), 2.9 (KLD12)): Clear, thick, stiffer gel
- Observation ([2]; 0.1N NaOH 200 μL/mL, Conc. 2.08%, pH 2.9 (RADA16), 3.0 (IEIK13), 3.3 (KLD12)): Clear, thick, stiffer gel
- Observation ([2]; 0.1N NaOH 250 μL/mL, Conc. 2.0%, pH 3.2 (RADA16), 3.3 (IEIK13), 4.0 (KLD12)): Clear, thick, stiffer gel
- Observation ([2]; 0.1N NaOH 275 μL/mL, Conc. 1.96%, pH 3.4 (RADA16), 3.7 (IEIK13)): Clear, thick, stiffer gel
- Observation ([2]; 0.1N NaOH 300 μL/mL, Conc. 1.92%, pH 3.6 (RADA16), 4.0 (IEIK13), 4.7 (KLD12)): Slightly cloudy, brittle gel
- Observation ([2]; 0.1N NaOH 350 μL/mL, Conc. 1.85%, pH 4.5 (RADA16), 4.5 (IEIK13), 5.2 (KLD12)): Cloudy, phase-separated
- Peptide composition pH ([2]; 0.1N NaOH added in 2.5% composition 0 μL/mL, Conc. 2.5%): 2.2
- Peptide composition pH ([2]; 0.1N NaOH added in 2.5% composition 50 μL/mL, Conc. 2.38%): 2.3
- Peptide composition pH ([2]; 0.1N NaOH added in 2.5% composition 100 μL/mL, Conc. 2.27%): 2.4
- Peptide composition pH ([2]; 0.1N NaOH added in 2.5% composition 150 μL/mL, Conc. 2.17%): 2.7
- Peptide composition pH ([2]; 0.1N NaOH added in 2.5% composition 200 μL/mL, Conc. 2.08%): 2.9
- Peptide composition pH ([2]; 0.1N NaOH added in 2.5% composition 250 μL/mL, Conc. 2.0%): 3.2
- Peptide composition pH ([2]; 0.1N NaOH added in 2.5% composition 275 μL/mL, Conc. 1.96%): 3.4
- Peptide composition pH ([2]; 0.1N NaOH added in 2.5% composition 300 μL/mL, Conc. 1.92%): 3.6
- Peptide composition pH ([2]; 0.1N NaOH added in 2.5% composition 350 μL/mL, Conc. 1.85%): 4.5
- Appearance of composition ([2]; pH about 3.5 (FIG. 12)): clear
- Appearance of composition ([2]; pH=3.6 (FIG. 12)): slightly cloudy
- Appearance of composition ([2]; pH=4.0 (FIG. 12)): precipitated
- Observation ([2]; pH 7.0, NaOH volume and conc. not given): Cloudy, phase-separated
- Peptide concentration with deionized water to obtain desired storage modulus ([3]; storage modulus 25 Pa): 0.8
- Peptide concentration with deionized water to obtain desired storage modulus ([3]; storage modulus 50 Pa): 0.9
- Peptide concentration with deionized water to obtain desired storage modulus ([3]; storage modulus 75 Pa): 1.0
- Peptide concentration with deionized water to obtain desired storage modulus ([3]; storage modulus 100 Pa): 1.2
- Peptide concentration with deionized water to obtain desired storage modulus ([3]; storage modulus 125 Pa): 1.3
- Peptide concentration with deionized water to obtain desired storage modulus ([3]; storage modulus 150 Pa): 1.5
- Peptide concentration with deionized water to obtain desired storage modulus ([3]; storage modulus 175 Pa): 1.6
- Peptide concentration with deionized water to obtain desired storage modulus ([3]; storage modulus 200 Pa): 1.7
- Peptide concentration with deionized water to obtain desired storage modulus ([3]; storage modulus 225 Pa): 1.9
- Peptide concentration with deionized water to obtain desired storage modulus ([3]; storage modulus 250 Pa): 2.0
- Peptide concentration with deionized water to obtain desired storage modulus ([3]; storage modulus 275 Pa): 2.2
- Peptide concentration with deionized water to obtain desired storage modulus ([3]; storage modulus 300 Pa): 2.3
- Peptide concentration with deionized water to obtain desired storage modulus ([3]; storage modulus 325 Pa): 2.4
- Peptide concentration with deionized water to obtain desired storage modulus ([3]; storage modulus 350 Pa): 2.6
- Peptide concentration with deionized water to obtain desired storage modulus ([3]; storage modulus 375 Pa): 2.7
- Peptide concentration with deionized water to obtain desired storage modulus ([3]; storage modulus 400 Pa): 2.9
- Peptide concentration with deionized water to obtain desired storage modulus ([3]; storage modulus 425 Pa): 3.0
- Peptide concentration with deionized water to obtain desired storage modulus ([3]; storage modulus 500 Pa): 3.4
- Peptide concentration with deionized water to obtain desired storage modulus ([3]; storage modulus 600 Pa): 4.0
- Peptide concentration with deionized water to obtain desired storage modulus ([3]; storage modulus 700 Pa): 4.5
- Peptide concentration with deionized water to obtain desired storage modulus ([3]; storage modulus 800 Pa): 5.1
- Storage modulus as a function of pH ([4]; DHR-1, 20 mm plates, 2.5% RADA16, 1.5% IEIK13 (FIGS. 18, 19)): increased with pH increase up to 3.4
- Stiffness at elevated pH versus unadjusted pH ([4]; pH 3.4 (RADA16, KLD12) or 3.7 (IEIK13) versus 2.5 (RADA16), 2.0 (KLD12), 2.1 (IEIK13), stress sweep): stiffer
- Gel formation (success or failure of gelation) [5]: gelled at all concentrations
